Laboratory results reported in publication PMC7365037.

Experiments:
Test in all cases: ITC
[1] = molecular target: human CBX3 chromodomain, wild-type (His-tagged) (human) (UniProt Q13185)
[2] = molecular target: HP1α chromodomain from D. melanogaster, wild-type (His-tagged) (D. melanogaster) (UniProt P05205)
[3] = molecular target: human CBX3 chromodomain double mutant K46A/D62F (HP1α numbering) (His-tagged) (human)
[4] = molecular target: HP1α K46A/E52D/D62F engineered chromodomain (His-tagged) (D. melanogaster) (UniProt P05205)
[5] = molecular target: human CBX1 chromodomain double mutant K46A/D62F (HP1α numbering) (His-tagged) (human)
[6] = molecular target: human CBX1 chromodomain, wild-type (His-tagged) (human) (UniProt P83916)
Chain of UniProt P83916 (P83916 15-73): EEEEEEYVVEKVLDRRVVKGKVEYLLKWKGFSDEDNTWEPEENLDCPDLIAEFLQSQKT

Chain of UniProt Q13185 (Q13185 25-81): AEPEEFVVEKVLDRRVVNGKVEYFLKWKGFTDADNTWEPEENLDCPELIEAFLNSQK

Kd [1]: 3000 nM
Kd [2]: 14000 nM
Kd [3]: 400 nM
Kd [4]: 700 nM
Kd [5]: 130 nM
Kd [6]: 600 nM
Substance: H3K9me3 peptide (used in ITC)
